Patent US20180021429A1 (PHARMA FOODS INTERNATIONAL, published 2018)
Numbering of substitutions follows the chain as printed. Read-outs that look alike come from different tables or passages of the source. Values belong to the binder of their own block, whether it stands above or below them.

Tests used:
[1] = biological target: T1, His-tagged mouse FSTL1 (amino acid sequence of mouse FSTL1 used in Examples, SEQ ID NO: 72) (mouse, UniProt Q62356 19-306); assay: ELISA, mouse FSTL1 coated (FIG. 3B)
T1 sequence: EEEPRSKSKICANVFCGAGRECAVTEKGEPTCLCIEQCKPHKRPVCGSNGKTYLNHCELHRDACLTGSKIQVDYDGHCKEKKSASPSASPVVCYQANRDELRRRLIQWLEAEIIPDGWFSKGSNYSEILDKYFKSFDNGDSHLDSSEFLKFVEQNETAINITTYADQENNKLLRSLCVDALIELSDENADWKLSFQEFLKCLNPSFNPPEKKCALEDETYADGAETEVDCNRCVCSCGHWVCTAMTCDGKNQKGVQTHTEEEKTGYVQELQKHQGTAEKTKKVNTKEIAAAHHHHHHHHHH

[2] = biological target: T2, human FSTL1 (construct not stated) (human, UniProt Q12841 21-308); assay: SPR (Biacore T-200), captured antibody, human FSTL1 10 µg/ml
T2 construct: also called human FSTL1 antigen; FSTL1 (R&D Systems, Inc. Cat#1694-FN-050)
T2 sequence: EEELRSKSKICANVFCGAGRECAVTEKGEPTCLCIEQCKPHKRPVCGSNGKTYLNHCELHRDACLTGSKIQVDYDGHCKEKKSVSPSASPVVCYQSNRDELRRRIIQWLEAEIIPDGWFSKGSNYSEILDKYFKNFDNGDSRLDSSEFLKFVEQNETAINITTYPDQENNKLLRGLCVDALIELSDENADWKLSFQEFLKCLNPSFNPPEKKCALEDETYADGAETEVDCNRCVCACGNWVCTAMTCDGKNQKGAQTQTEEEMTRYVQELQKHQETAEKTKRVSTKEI
Experimental: (§1) The mouse chimeric antibodies were immobilized onto Sensor Chip CM5 (GE Healthcare Japan Corp., BR-1005-30) using Mouse Antibody Capture Kit (GE Healthcare Japan Corp., BR-1008-38), and their affinity for human FSTL1 was calculated using Biacore T-200 (GE Healthcare Japan Corp.).
(§2) First, the exhaustive activity comparison of the obtained antibodies was conducted with the human FSTL1 concentration fixed to 10 μg/ml (Table 33-1, FIG. 28).

[3] = biological target: T2, human FSTL1 (construct not stated); assay: as above; remark: listed apart in the source
Experimental: as §1, §2

[4] = biological target: T2, human FSTL1 (construct not stated); assay: as above; remark: listed apart in the source
Experimental: as §1

[5] = biological target: T2, human FSTL1 (construct not stated); assay: as above; remark: listed apart in the source
Experimental: as §1, §2

[6] = biological target: T2, human FSTL1 (construct not stated); assay: SPR (Biacore T-200), antibody on Human Antibody Capture Kit, human FSTL1 0 to 20 µg/ml
Experimental: (§3) Nine IgG1-type humanized antibodies of #6-55 were immobilized onto Sensor Chip CM5 (GE Healthcare Japan Corp., BR-1005-30) using Human Antibody Capture Kit (GE Healthcare Japan Corp., BR-1008-38), and their affinity for human FSTL1 was calculated using Biacore T-200 (GE Healthcare Japan Corp.). […] Among the 9 IgG1-type humanized antibodies of #6-55, a clone composed of a combination “H(2)-L(1)” having a […] KD value was selected as a lead antibody.

[7] = biological target: T2, human FSTL1 (construct not stated); assay: as above; remark: listed apart in the source
Experimental: as §3

[8] = biological target: T2, human FSTL1 (construct not stated); assay: as above; remark: listed apart in the source
Experimental: as §3

[9] = biological target: T2, human FSTL1 (construct not stated); assay: as above; remark: listed apart in the source
Experimental: as §3

[10] = biological target: T1, His-tagged mouse FSTL1 (amino acid …); assay: ELISA, mouse FSTL1 coated (FIG. 1B)
[11] = biological target: T2, human FSTL1 (construct not stated); assay: BLI (BLItz), biotinylated antigen 5 µg/ml on streptavidin sensor, antibody 0 to 40 ug/ml
Experimental: The binding activity of the obtained purified antibody against FSTL1 was measured by use of the BLI method (BLItz, Pall Corp., 45-5000). The antigen was biotinylated using EZ-Link NHS-PEG4-Biotin (Thermo Fisher Scientific Inc., 21329). Streptavidin Tray (Pall Corp., 18-5019) was used as a sensor chip for the BLI method. The sensor chip was hydrated with PBS (Wako Pure Chemical Industries, Ltd., 166-23555) for 10 minutes or longer. 5 μg/ml of the biotinylated antigen was immobilized onto the hydrated sensor chip for 300 seconds. The antibody was adjusted to 40, 20, 10, 5, 2.5, or 0 ug/ml and reacted therewith for 120 seconds, and dissociation was measured for 300 seconds. When the antibody concentration of 0 ug/ml was used as a reference, the KD value was calculated.

- Binding amount (RU) [2]: 11.6 RU
- Dissociation amount (RU) [2]: 6.2 RU
- Binding amount (RU) [3]: 11.6 RU
- Dissociation amount (RU) [3]: 6.2 RU
- Binding amount (RU) [4]: 11.6 RU
- Dissociation amount (RU) [4]: 6.2 RU
- Binding amount (RU) [5]: 11.6 RU
- Dissociation amount (RU) [5]: 6.2 RU
B1: anti-FSTL1 antibody clone #8-4 (chicken-mouse chimeric antibody) (antibody, mouse IgG1, kappa, V domains shown)
VH: AVTLDESGGGLQTPGGGLSLVCKGSGFTLSSFNMFWVRQAPGKGLEWVAGVGKDGGTAYGAAVDGRATISRDSGQSTVRLQLNNLRAEDTGTYFCAKAAGGCSYSWCGAYVGDLDAWGHGTEVIVSS
VL: ASSQPSSVSANPGETVKITCSGGSGYYYGWYQQKSPGSAPVTVIYNNDNKPSDIPSRFSGSKSGSTGTLTITGVQVEDEAVYFCGGYDNSGTGIFGAGTTLTVLG
- binding result [1]: no binding (tested: antibody diluted from 100 ng/ml)

- Kd [6]: 0.045 µM
- Kd [7]: 0.045 µM
- Kd [8]: 0.045 µM
- Kd [9]: 0.045 µM
B3: humanized #6-55 antibody H(2)-L(3) (IgG1 type) (antibody, V domains shown)
VH: EVQLLESGGGLVQPGGSLRLSCAASGFTFSSVTMQWVRQAPGKGLEFVSSVCSGSSTYYAPAVKGRFTISRDNSKNTVYLQMNSLRAEDTAVYYCAKIAGRARWSCTSAAYNIDAWGQGTLVTVSS
VL: SYELTQPPSVSVSPGQTARITCSGGGNNYGWYQQKPGQAPVTVIYYNDNRPSGIPERFSGSNSGNTATLTISGVQAEDEADYYCGSWDSNTDSGIFGGGTKLTVLG
notes: Human IgG1 constant region; expressed in HEK293; also called h#6-55 H(2)-L(3)

- Kd [6]: 0.0113 µM
- Kd [7]: 0.0113 µM
- Kd [8]: 0.0113 µM
- Kd [9]: 0.0113 µM
B4: humanized #6-55 antibody H(2)-L(2) (IgG1 type) (antibody, V domains shown)
VH: B3 VH
VL: B3 VL with N62T, N65S, A67T
notes: Human IgG1 constant region; expressed in HEK293; also called h#6-55 H(2)-L(2)

- Kd [6]: 0.0249 µM
- Kd [7]: 0.0249 µM
- Kd [8]: 0.0249 µM
- Kd [9]: 0.0249 µM
B5: humanized #6-55 antibody H(3)-L(3) (IgG1 type) (antibody, V domains shown)
VH: B3 VH with S49A, F67V
VL: B3 VL
notes: Human IgG1 constant region; expressed in HEK293; also called h#6-55 H(3)-L(3)

- Kd [6]: 0.0268 µM
- Kd [7]: 0.0268 µM
- Kd [8]: 0.0268 µM
- Kd [9]: 0.0268 µM
B7: humanized #6-55 antibody H(1)-L(3) (IgG1 type) (antibody, V domains shown)
VH: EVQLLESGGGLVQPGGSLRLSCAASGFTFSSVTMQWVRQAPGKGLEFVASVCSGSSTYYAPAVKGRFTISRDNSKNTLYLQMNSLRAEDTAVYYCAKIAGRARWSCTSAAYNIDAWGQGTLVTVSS
VL: B3 VL
notes: Human IgG1 constant region; expressed in HEK293; also called h#6-55 H(1)-L(3)

- Kd [11]: 0.0109 µM
B10: optimized humanized antibody (humanized #6-55 H(2)-L(1), human IgG4 H chain constant region, λ L chain constant region) (antibody)
heavy: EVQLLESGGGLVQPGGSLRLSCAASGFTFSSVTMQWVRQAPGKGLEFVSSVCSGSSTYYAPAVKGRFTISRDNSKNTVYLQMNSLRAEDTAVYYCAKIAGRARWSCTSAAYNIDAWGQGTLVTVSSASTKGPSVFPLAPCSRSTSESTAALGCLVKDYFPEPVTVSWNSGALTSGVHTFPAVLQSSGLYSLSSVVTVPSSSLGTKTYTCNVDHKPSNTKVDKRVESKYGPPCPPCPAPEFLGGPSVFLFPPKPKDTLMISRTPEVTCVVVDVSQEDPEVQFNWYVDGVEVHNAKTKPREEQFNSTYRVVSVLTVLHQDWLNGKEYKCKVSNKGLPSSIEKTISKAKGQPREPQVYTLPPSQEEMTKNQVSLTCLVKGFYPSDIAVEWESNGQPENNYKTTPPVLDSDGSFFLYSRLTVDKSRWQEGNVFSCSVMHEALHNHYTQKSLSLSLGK
light: SYELTQPPSVSVSPGQTARITCSGGGNNYGWYQQKPGQAPVTVIYYNDNRPSGIPERFSGSNSGSTTTLTISGVQAEDEADYYCGSWDSNTDSGIFGGGTKLTVLGQPKAAPSVTLFPPSSEELQANKATLVCLISDFYPGAVTVAWKADSSPVKAGVETTTPSKQSNNKYAASSYLSLTPEQWKSHRSYSCQVTHEGSTVEKTVAPTECS
notes: Expressed in ExpiCHO

- Kd [6]: 0.0605 µM
- Kd [7]: 0.0605 µM
- Kd [8]: 0.0605 µM
- Kd [9]: 0.0605 µM
B11: humanized #6-55 antibody H(2)-L(1) (IgG1 type) (antibody)
heavy: not shown
light: SYELTQPPSVSVSPGQTARITCSGGGNNYGWYQQKPGQAPVTVIYYNDNRPSGIPERFSGSNSGSTTTLTISGVQAEDEADYYCGSWDSNTDSGIFGGGTKLTVLGTVAAPSVFIFPPSDEQLKSGTASVVCLLNNFYPREAKVQWKVDNALQSGNSQESVTEQDSKDSTYSLSSTLTLSKADYEKHKVYACEVTHQGLSSPVTKSFNRGEC
notes: Human IgG1 constant region; expressed in HEK293; lead antibody; also called h#6-55 H(2)-L(1); humanized #6-55 H chain (2)+L chain (1)

The next lines start with the binder.

B2: humanized #6-55 antibody H(1)-L(1) (IgG1 type) (antibody, V domains shown)
VH: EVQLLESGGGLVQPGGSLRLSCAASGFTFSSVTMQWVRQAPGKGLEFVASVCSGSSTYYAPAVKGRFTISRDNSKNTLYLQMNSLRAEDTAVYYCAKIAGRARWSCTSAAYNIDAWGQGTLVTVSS
VL: B3 VL with N65S, A67T
notes: Human IgG1 constant region; expressed in HEK293 with a chicken antibody leader; also called h#6-55 H(1)-L(1)
- Kd [6]: 0.0352 µM
- Kd [7]: 0.0352 µM
- Kd [8]: 0.0352 µM
- Kd [9]: 0.0352 µM

B6: humanized #6-55 antibody H(1)-L(2) (IgG1 type) (antibody, V domains shown)
VH: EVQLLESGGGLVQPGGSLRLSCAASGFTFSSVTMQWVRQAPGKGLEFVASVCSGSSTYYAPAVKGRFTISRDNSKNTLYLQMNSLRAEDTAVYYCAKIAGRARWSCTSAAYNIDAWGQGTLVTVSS
VL: B3 VL with N62T, N65S, A67T
notes: Human IgG1 constant region; expressed in HEK293; also called h#6-55 H(1)-L(2)
- Kd [6]: 0.025 µM
- Kd [7]: 0.025 µM
- Kd [8]: 0.025 µM
- Kd [9]: 0.025 µM

B8: anti-FSTL1 antibody clone #7-34 (chicken-mouse chimeric antibody) (antibody, mouse IgG1, kappa, V domains shown)
VH: AVTLDESGGGLQTPGGGLSLVCKASGFTFSSVTMQWVRQAPGKGLEWVASICSGSSTYYGPAVKGRATISRDNGQNTVRLQLNNLRAEDTATYYCAKIVGRGRWSCTSAAYNIDAWGHGTEVIVSS
VL: ASTQPSSVSANPGETVKITCSGGGNNYGWYQQKSPGSAPVTVIYYNNNRPSNIPSRFSGSTSGSTSTLTITGVQAEDEAVYYCGSYEGSTDSGIFGAGTTLTVLG
- binding result [10]: binds
- Binding amount (RU) [2]: 14.2 RU
- Dissociation amount (RU) [2]: 2.5 RU
- Binding amount (RU) [3]: 14.2 RU
- Dissociation amount (RU) [3]: 2.5 RU
- Binding amount (RU) [4]: 14.2 RU
- Dissociation amount (RU) [4]: 2.5 RU
- Binding amount (RU) [5]: 14.2 RU
- Dissociation amount (RU) [5]: 2.5 RU

B9: anti-FSTL1 antibody clone #6-55 (chicken-mouse chimeric antibody) (antibody, mouse IgG1, kappa, V domains shown)
VH: AVTLDESGGGLQTPGGALSLVCKGSGFTFTSVTMQWVRQAPGKGLEWVASVCSGSSTYYAPAVKGRATISRDNGQSTVRLQLSNLRPEDTGTYYCAKIAGRARWSCTSAAYNIDAWGHGTEVIVSS
VL: B8 VL with N11I, K33R, N47D, E76D, V80I, Y86W, E87D, G88S, S89N
notes: also called Anti-FSTL1 mAb (#6-55)
- binding result [1]: binds
- Binding amount (RU) [2]: 11 RU
- Dissociation amount (RU) [2]: 1.5 RU
- Binding amount (RU) [3]: 11 RU
- Dissociation amount (RU) [3]: 1.5 RU
- Binding amount (RU) [4]: 11 RU
- Dissociation amount (RU) [4]: 1.5 RU
- Binding amount (RU) [5]: 11 RU
- Dissociation amount (RU) [5]: 1.5 RU

B12: anti-FSTL1 antibody clone #10 (chicken-mouse chimeric antibody) (antibody, mouse IgG1, kappa, V domains shown)
VH: AVTLDESGGGLQTPGGALSLVCKASGFFFFRIYDMGWVRQAPGKGLEWVAGIDDYGRYTGYGSAVKGRATISRDNGQSTVRLQLNNLRAEDTGTYYCARGAGTGCNSAGCGAYAGSIDAWGHGTEVIVSS
VL: ASTQPSSVSANPGETVKLTCSGGGSRYGWYQQKSPGSAPVTVIYYNDKRPSDIPSRFSGSKSGSTATLTITGVQAEDEAVYFCGGYDGSRDAGIFGAGTTLTVLG
- binding result [1]: binds
- Binding amount (RU) [2]: 11.7 RU
- Dissociation amount (RU) [2]: 6 RU
- Binding amount (RU) [3]: 11.7 RU
- Dissociation amount (RU) [3]: 6 RU
- Binding amount (RU) [4]: 11.7 RU
- Dissociation amount (RU) [4]: 6 RU
- Binding amount (RU) [5]: 11.7 RU
- Dissociation amount (RU) [5]: 6 RU
